Results on six molecules are retold here after patent publication US20260022175A1 (Chugai, published 2026).

Residue numbers refer to the chain shown, from its start. In names and notes the source's numbering stands.

First the molecules themselves.
T1: human FcγRIIb extracellular domain with C-terminal His-tag (human, UniProt P31994 43-217)
T1 construct: extracellular domain; also called hFcγR IIb
T1 sequence (looked up): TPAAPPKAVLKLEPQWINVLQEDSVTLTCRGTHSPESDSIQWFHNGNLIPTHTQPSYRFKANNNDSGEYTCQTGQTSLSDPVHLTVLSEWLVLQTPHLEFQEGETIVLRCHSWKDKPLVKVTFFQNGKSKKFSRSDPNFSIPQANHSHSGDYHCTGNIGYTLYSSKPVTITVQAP

T2: human FcγRIIa R allotype extracellular domain with C-terminal His-tag (human, UniProt P12318 34-217)
T2 construct: extracellular domain; also called hFcγR IIa R
T2 sequence (looked up): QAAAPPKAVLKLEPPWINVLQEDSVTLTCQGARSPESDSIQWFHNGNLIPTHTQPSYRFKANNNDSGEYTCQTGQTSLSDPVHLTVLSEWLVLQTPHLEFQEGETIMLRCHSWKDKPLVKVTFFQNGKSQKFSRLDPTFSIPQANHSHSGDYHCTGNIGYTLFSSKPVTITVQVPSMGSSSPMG

T3: human FcγRIIa H allotype extracellular domain with C-terminal His-tag (human, UniProt P12318 34-217)
T3 construct: extracellular domain; also called hFcγR IIa H
T3 sequence (looked up): T2 sequence (looked up) with R134H

B1: 04H1389-Km473/04L1615-k0MT//04H1389-Hm482/04L1615-k0MT (antibody)
heavy 1: EVQLVESGGGLVKPGGSLRLSCAASGFTFSSKTMNWVRQAPGKGLEWVSSISTQSHYIYYAESVKGRFTISRDNAKNSLYLQMNSLRAEDTAVYYCARYGKREDMLWVFDYWGQGTLVTVSSASTKGPSVFPLAPSSKSTSGGTAALGCLVKDYFPEPVTVSWNSGALTSGVHTFPAVLQSSGLYSLSSVVTVPSSSLGTQTYICNVNHKPSNTKVDKRVEPKSCDKTHTCPPCPAPEFQWGPMVFLFPPKPKDVLMISRTPEVTCVVVDVSDEEPEVKFNWYVDGVEVHNAKTKPREEQYNATYRVVSVLPVLHQDWLNGKEYKCKVSNDALPAPIEKTISKAKGQPREPQVCTLPPSREEMTKNQVSLWCLVKGFYPSDIAVEWESNGQPENNYKTTPPVLDSDGSFFLYSKLTVDKSRWQQGNVFSCSVMHEALHAHTTRKELSLSP
heavy 2: EVQLVESGGGLVKPGGSLRLSCAASGFTFSSKTMNWVRQAPGKGLEWVSSISTQSHYIYYAESVKGRFTISRDNAKNSLYLQMNSLRAEDTAVYYCARYGKREDMLWVFDYWGQGTLVTVSSASTKGPSVFPLAPSSKSTSGGTAALGCLVKDYFPEPVTVSWNSGALTSGVHTFPAVLQSSGLYSLSSVVTVPSSSLGTQTYICNVNHKPSNTKVDKRVEPKSCDKTHTCPPCPAPELLAGPSVFLFPPKPKDVLMISRTPEVTCVVVDVSHEEPEVKFNWYVDGVEVHNAKTKPREEQYNATYRVVSVLPVLHQDWLNGKEYKCKVSNDALPKPDEETISKAKGQPREPQVYTLPPSRCEMTKNQVSLSCAVKGFYPSDIAVEWESNGQPENNYKTTPPVLDSDGSFFLVSKLTVDKSRWQQGNVFSCSVMHEALHAHTTRKELSLSP
light: DIVMTQSPLSLPVTPGEPASISCQGPSTGVGDYNYVHWYQQKPGQAPRLLIYFTSKKPSGVPDRFSGSGSGTDFTLKISRVEAEDVGVYYCQTYAAPLGPMFGQGTKLEIKRTVAAPSVFIFPPSDEQLKSGTASVVCLLNNFYPREAKVQWKVDNALQSGNSQESVTEQDSKDSTYSLSSTLTLSKADYEKHKVYACEVTHQGLSSPVTKSFNRGEC
notes: Heterodimerized antibody with N434A/Y436T/Q438R/S440E
B2: 04H1389-Km461/04L1615-k0MT//04H1389-Hm443/04L1615-k0MT (antibody, human IgG1, kappa)
heavy 1: B1 heavy 1 with I337E, A439N, T441Y, R443Q, E445S
heavy 2: B1 heavy 2 with K335A, D337E, A439N, T441Y, R443Q, E445S
light: B1 light
notes: Heterodimerized antibody
B3: 04H1389-Km462/04L1615-k0MT//04H1389-Hm445/04L1615-k0MT (antibody, human IgG1, kappa)
heavy 1: B1 heavy 1 with A439N, T441Y, R443Q, E445S
heavy 2: B1 heavy 2 with A439N, T441Y, R443Q, E445S
light: B1 light
notes: Heterodimerized antibody
B4: 04H1389-Km481/04L1615-k0MT//04H1389-Hm498/04L1615-k0MT (antibody)
heavy 1: B1 heavy 1 with I337E
heavy 2: B1 heavy 2 with K335A, D337E
light: B1 light
notes: as for B1
B5: 04H1389-Ks473/04L1615-k0MT//04H1389-Hs482/04L1615-k0MT (antibody)
heavy 1: B1 heavy 1 with C354Y
heavy 2: B1 heavy 2 with C361E
light: B1 light
notes: as for B1
B6: 04H1389-Ks462/04L1615-k0MT//04H1389-Hs445/04L1615-k0MT (antibody, human IgG1, kappa)
heavy 1: B1 heavy 1 with C354Y, A439N, T441Y, R443Q, E445S
heavy 2: B1 heavy 2 with C361E, A439N, T441Y, R443Q, E445S
light: B1 light
notes: Heterodimerized antibody

T4 sequence (P12314 16-292): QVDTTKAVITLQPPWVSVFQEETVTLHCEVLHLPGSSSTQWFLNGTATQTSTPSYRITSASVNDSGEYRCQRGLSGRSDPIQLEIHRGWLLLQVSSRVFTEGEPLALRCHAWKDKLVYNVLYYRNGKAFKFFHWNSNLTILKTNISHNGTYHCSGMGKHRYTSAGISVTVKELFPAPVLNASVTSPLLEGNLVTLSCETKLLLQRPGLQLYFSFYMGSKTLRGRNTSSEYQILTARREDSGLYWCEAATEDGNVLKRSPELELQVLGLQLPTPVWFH
T5 sequence (P08637 17-208): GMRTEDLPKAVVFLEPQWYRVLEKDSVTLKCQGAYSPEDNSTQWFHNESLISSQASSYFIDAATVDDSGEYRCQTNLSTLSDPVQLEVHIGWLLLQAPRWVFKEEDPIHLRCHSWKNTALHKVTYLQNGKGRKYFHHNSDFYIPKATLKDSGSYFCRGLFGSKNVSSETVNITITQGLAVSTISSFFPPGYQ
T7 sequence (P55899 24-290 limits assumed, chain 1 of 2): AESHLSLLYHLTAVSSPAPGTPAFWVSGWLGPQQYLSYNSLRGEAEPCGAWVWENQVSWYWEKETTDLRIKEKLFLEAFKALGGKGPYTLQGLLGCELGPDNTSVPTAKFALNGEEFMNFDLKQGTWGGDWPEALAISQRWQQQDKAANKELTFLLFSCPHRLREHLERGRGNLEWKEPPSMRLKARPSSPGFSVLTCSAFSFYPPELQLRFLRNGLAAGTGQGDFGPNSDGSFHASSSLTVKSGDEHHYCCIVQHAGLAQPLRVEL
T7 sequence (P61769 21-119 limits assumed, chain 2 of 2): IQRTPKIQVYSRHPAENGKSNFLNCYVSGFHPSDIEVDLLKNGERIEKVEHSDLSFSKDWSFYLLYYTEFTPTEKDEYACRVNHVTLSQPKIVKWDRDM
T6 sequence (P08637 17-208 F176V): as the sequence (P08637 17-208) above, with F160V counted along it

One test concerns the target T1, human FcγRIIb extracellular domain with …. Description: SPR; FcγRIIb bound amount per unit captured Ab.
Molecule B1 displayed a Binding amount of 0.024.
Still for that read-out and setting: then B2, with 0.024; and B3, with 0.029.
The same measure, in the same setting: the value for B4 was 0.021; that for B5 was 0.026.
Same read-out and setting: then B6, with 0.03.

The next test addresses T4, human FcγRIa extracellular domain with C-terminal His-tag (human, UniProt P12314 16-292).
T4 construct: extracellular domain; also called hFcγR Ia; hFcγRIa
Description: SPR Biacore T200, Ab captured via Fab-kappa, pH 7.4, 25C.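 Note: each FcγR flowed as analyte over the captured antibodies, KD derived by 1:1 Langmuir or steady-state affinity fitting depending on the receptor.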
Description: (§1) The interaction between the generated antibodies and human FcγRs was analyzed using Biacore T200. 50 mM Na-Phosphate, 150 mM NaCl, 0.05% Tween20 (pH 7.4) was used as the running buffer, and the assay was performed at 25° C. For the sensor chip, Series S SA (GE Healthcare) chips onto which CaptureSelect Human Fab-kappa Kinetics Biotin Conjugate (Thermo Fisher Scientific) was immobilized were used. The antibodies of interest were captured onto these chips and each FcγR diluted in the running buffer was allowed to interact with them. Chips were regenerated with 10 mM Glycine-HCl (pH 1.5) and 25 mM NaOH, and assay was performed by repeatedly capturing antibodies. The dissociation constants KD (mol/L) for FcγRs of each antibody were calculated using Biacore T200 Evaluation Software 2.0, and using the 1:1 Langmuir binding model for FcγRIa and FcγRIIIa and the steady state affinity model for FcγRIIa. For FcγRIIb, the binding amount of FcγRIIb per unit amount of antibody was calculated by correcting the binding amount of FcγRIIb obtained from the sensorgram obtained by the measurement with the amount of antibody captured onto the chip surface.
A word on the Kd: it is a measure of binding affinity in units of concentration. For B1, the equilibrium dissociation constant (Kd) was determined as 0.062 nM.
Molecule B2 displayed a Kd of 0.025 nM. This Kd is about 2.5-fold lower than that of the molecule before.
Molecule B3 returned a Kd of 0.048 nM.
Still for that read-out and setting: the value for B4 was 0.042 nM; that for B5 was 0.051 nM; that for B6 was 0.047 nM.

A further test has as its target T2, human FcγRIIa R allotype extracellular …. The description is as above.
Description: as §1
With B1, the Kd stood at 180 nM.
B2: the Kd amounted to 260 nM.
Consider B3, for which the Kd is 160 nM.
Same read-out and setting: then B4, with 290 nM.
Still for that read-out and setting: then B5, with 160 nM; and B6, with 160 nM.

In the next test the target is T3, human FcγRIIa H allotype extracellular …. Described as above.
Description: as §1
B1: the affinity, expressed as Kd, was 87 nM.
B2 gave an equilibrium dissociation constant (Kd) of 190 nM.
On the same count and under the same terms, then B3, with 74 nM; and B4, with 210 nM.
The same measure, in the same setting: the value for B5 was 75 nM; that for B6 was 67 nM.

Another test addresses T5, human FcγRIIIa F allotype extracellular domain with C-terminal His-tag (human, UniProt P08637 17-208).
T5 construct: extracellular domain; also called hFcγR IIIa F
The test is described as above.
Description: as §1
On to B1, for which binding was characterised by a dissociation constant (Kd) of 2.6 nM.
The same measure, in the same setting: the value for B2 was 1.2 nM.
Same read-out and setting: then B3, with 2.2 nM; and B4, with 1.4 nM.
The same measure, in the same setting: then B5, with 2.3 nM.
Turning to B6, the Kd turned out to be 2.1 nM.

Another test addresses T6, human FcγRIIIa V allotype extracellular domain with C-terminal His-tag (human, UniProt P08637 17-208).
T6 construct: extracellular domain; also called hFcγR IIIa V
The description is as above.
Description: as §1
In the case of B1, the Kd came out at 1.3 nM.
The same measure, in the same setting: the value for B2 was 0.56 nM.
Same read-out and setting: then B3, with 1.1 nM; and B4, with 0.62 nM; and B5, with 1.2 nM.
On the same count and under the same terms, then B6, with 1.1 nM.

A further test has as its target T7, human FcRn (human, UniProt P55899 24-290; P61769 21-119).
T7 construct: Prepared by the method of WO 2010/107110; also called hFcRn
Description: SPR; KD of 04H1389-G1m/04L1615-k0MT divided by KD of variant. A general note: SPR reads the build-up and loss of mass on a sensor chip optically.
Consider B1, for which the “Relative value to KD between G1m and hFcRn” value is 2.8.
Turning to B2, the “Relative value to KD between G1m and hFcRn” value amounted to 0.7.
Same read-out and setting: then B3, with 0.8; and B4, with 2.8.
On the same count and under the same terms, then B5, with 2.9.
The same measure, in the same setting: then B6, with 0.8.

Another test concerns the target T4, human FcγRIa extracellular domain with …. The description is as above.
B1: the “Relative value to KD between G1m and hFcγRs” value was found to be 0.7.
The same measure, in the same setting: then B2, with 1.8; and B3, with 0.9.
The same measure, in the same setting: then B4, with 1.1.
With B5, the “Relative value to KD between G1m and hFcγRs” value was found to be 0.9.
Still for that read-out and setting: then B6, with 1.

The next test deals with T2, human FcγRIIa R allotype extracellular …. The description is as above.
On to B1, for which the “Relative value to KD between G1m and hFcγRs” value came to 8.2.
The same measure, in the same setting: the value for B2 was 5.8; that for B3 was 9.5; that for B4 was 5.1.
The same measure, in the same setting: the value for B5 was 9.
Still for that read-out and setting: the value for B6 was 9.1.

The next test deals with T3, human FcγRIIa H allotype extracellular …. The test is described as above.
Turning to B1, the “Relative value to KD between G1m and hFcγRs” value amounted to 12.3.
The same measure, in the same setting: the value for B2 was 5.7; that for B3 was 14.4; that for B4 was 5.
Same read-out and setting: the value for B5 was 14.1; that for B6 was 15.8.

Another test deals with T6, human FcγRIIIa V allotype extracellular …. The description is as above.
Regarding B1, the “Relative value to KD between G1m and hFcγRs” value came out at 705.
The same measure, in the same setting: the value for B2 was 1620; that for B3 was 811.
In the case of B4, the “Relative value to KD between G1m and hFcγRs” value stood at 1470.
Same read-out and setting: the value for B5 was 760.
The same measure, in the same setting: then B6, with 830.

The next test has as its target T1, human FcγRIIb extracellular domain with …. Nature of the test: SPR; binding amount divided by that of 04H1389-G1m/04L1615-k0MT.
As to B1, the Relative binding amount was 2.1.
As to B2, the Relative binding amount was determined as 2.1.
The same measure, in the same setting: then B3, with 2.6.
Same read-out and setting: then B4, with 1.9.
On the same count and under the same terms, the value for B5 was 2.3.
For B6, the Relative binding amount was determined as 2.6.

The next test addresses T7, human FcRn. Description: SPR Biacore T200, Ab captured via Fab-kappa, pH 6.0, steady state.
B1: the dissociation constant Kd stood at 460 nM. In other words, the sub-micromolar range.
The same measure, in the same setting: then B2, with 1700 nM.
On the same count and under the same terms, then B3, with 1700 nM; and B4, with 470 nM; and B5, with 450 nM.
Same read-out and setting: then B6, with 1600 nM.
